B1: TPR 5TU (parent)
chain: GGAUCUUCUCGAUCUAACAAAAAAGACAAAUCUGCCACAAAGCUUGAGAGCAUCUUCGGAUGCAGAGGCGGCAGCCUUCGGUGGCGCGAUAGCGCCAACGUUCUCAACUAUGACACGCAAAACGCGUGCUCCGUUGAAUGGAGUUUAUCAUG

This sample holds only a part of the variants without activity. Some results are limits rather than exact numbers.

We go through 84 variants from the RNAGym collection of RNA variant scans (doi:10.1073/pnas.2313332121).

The variants in this data set derive from B1. Briefly: polymerase ribozyme fitness, log enrichment relative to wild type (log ratio); higher = more active; in vitro selection for triplet polymerase activity. An outline of the steps: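 Mutant libraries for each subunit of a heterodimeric triplet polymerase ribozyme were made by PCR and then transcribed. Each library underwent one round of in vitro selection in triplicate: annealing with a biotinylated primer, the partner subunit and triplets, frozen incubation at −7 °C, gel excision of extended constructs, streptavidin-bead capture and RT-PCR. Input and output libraries were Illumina-sequenced, and only genotypes with ≥10 input reads and ≥1 read per output were kept. Fitness is the logarithm, base 2, of genotype enrichment over wild-type enrichment, computed from inverse-variance-weighted replicate averages.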
Regarding A26G C36G C57A G94U A142U G152C, the “polymerase ribozyme fitness (log ratio)” value is ≤ -4.2.
Turning to G25U C36U C54G, the “polymerase ribozyme fitness (log ratio)” value was -4.13.
For A28U C116G, the “polymerase ribozyme fitness (log ratio)” value was -3.74.
To C27G C76U G83A C85G A107U A119U G141A belongs ≤ -4.2; to C27A U33G U55A C116G, -4.1; to A28U A52C, -3.54.
Turning to C27A A41G C54A C72G C103G G133U G141U U144A U145G, the “polymerase ribozyme fitness (log ratio)” value is ≤ -4.2.
For A26C U78C the value was -3.76; for C27G A49C C51G G84U A98G A110G, ≤ -4.2; for A28U A49C G58C G59A G84U U146A C149U, ≤ -4.2.
To A26U G42C G50U C93A A115U G117C belongs ≤ -4.2; to C27G U44G A89C A142U, ≤ -4.2; to C27G C54A G65C C95U C96A C99A, ≤ -4.2.
For A26C U56C G65A C75U A91U C96U the value was ≤ -4.2; for A26C U61C C85A U151G, ≤ -4.2.
For the variant C27G U33C U55A A97C A121G, the “polymerase ribozyme fitness (log ratio)” value is ≤ -4.2.
To A28C C87A C108G U146C belongs ≤ -4.2.
To A26U U44A C93A A142C belongs ≤ -4.2; to C27U U56A, -1.67; to A28U A49C U56A C95A C96U C108U G128U, ≤ -4.2.
On to A26U U53A C76A G124U U145C, for which the “polymerase ribozyme fitness (log ratio)” value was ≤ -4.2.
For A28U G84A C125U G126A G152U the value was ≤ -4.2; for C27A G50C G74C U77C U104A, ≤ -4.2; for C27U U45A G81A G124U, ≤ -4.2.
For C27G A49G A66C the value was ≤ -4.2.
To C27G A41U C87U A150C belongs -3.92.
On to C27U U44A C54U U56A A60U U82A C85U A97C C105G A110C C118A, for which the “polymerase ribozyme fitness (log ratio)” value was ≤ -4.2.
For G25U C87U A122G the value was -3.5; for A26G C85G G88C C125U G136A, ≤ -4.2.
In the case of A28U G94A, the “polymerase ribozyme fitness (log ratio)” value is ≤ -4.2.
A28G U33A A40U C87U G92A U127A G152U: the “polymerase ribozyme fitness (log ratio)” value is -3.85.
For A26C U61A the value was -3.34.
Take A26U C116U G141A: the “polymerase ribozyme fitness (log ratio)” value is -1.75.
With G25U A37G C85A U148C, the “polymerase ribozyme fitness (log ratio)” value was ≤ -4.2.
For A28C U31A A91G U104C the value was ≤ -4.2; for C27A U82A A91G C131G U139C, ≤ -4.2.
To C27G U44G G58C G71C C93G G94A U101A U102A belongs ≤ -4.2.
For A28C C38A G46A A66C G71U U127G the value was ≤ -4.2; for A26C A30G U45A A60G A97U U104G G143U, ≤ -4.2.
For the variant C27U C95A A138G, the “polymerase ribozyme fitness (log ratio)” value is ≤ -4.2.
As to G25U A49U C93U A119C, the “polymerase ribozyme fitness (log ratio)” value is -3.95.
For G25U G62A the value was -2.84; for A26G G58C A60G U82C C93G A98U C103A C105G G143U, ≤ -4.2.
For C27U C32U A40U A49C C54U C87U A89U A98U the value was ≤ -4.2.
As for A28C A40C G48U G50C C95U G117C A119U C123U, the “polymerase ribozyme fitness (log ratio)” value is ≤ -4.2.
For C27G C75A C79G G92U A121C C131G A147C the value was ≤ -4.2; for C27A C85A C149U, ≤ -4.2; for A26C G50A G67A G70C G83U C87U U90C, ≤ -4.2.
With A28U C32G C87U C99G, the “polymerase ribozyme fitness (log ratio)” value is ≤ -4.2.
To A26G A41G U53A G74A G141A belongs ≤ -4.2; to A28U A41G G42C G94C, ≤ -4.2; to C27U U55G U61A C87G, ≤ -4.2.
For the variant A26U A30C A49G G92C, the “polymerase ribozyme fitness (log ratio)” value was ≤ -4.2.
To C27G G50A G58A G83U belongs ≤ -4.2; to A26C G65C G84A A89C G141C, ≤ -4.2.
For A28G G92U C93A the value was ≤ -4.2; for C27U G128A, -4.04.
Consider A28U G59A, for which the “polymerase ribozyme fitness (log ratio)” value is ≤ -4.2.
For A26U C51A A60U G88U C95U C118U G141C the value was ≤ -4.2.
To C27U C131U belongs 0.137; to C27U U53A G70U, -3.43.
Turning to A28U C32G G133C, the “polymerase ribozyme fitness (log ratio)” value is ≤ -4.2.
Turning to G25U A52U U145C, the “polymerase ribozyme fitness (log ratio)” value was -3.91.
For A26U G88U C118G G143C, the “polymerase ribozyme fitness (log ratio)” value was ≤ -4.2.
In the case of C27G A29G A41C G67A G74A, the “polymerase ribozyme fitness (log ratio)” value was ≤ -4.2.
For A26C A39G G42U A60G U78C C93G G117A the value was ≤ -4.2; for C27G G46A A64C U77G G88U A121U, ≤ -4.2.
As to A26U C36A U56G C108A A137C, the “polymerase ribozyme fitness (log ratio)” value is ≤ -4.2.
To A28U A41U G67C C93U belongs ≤ -4.2; to A26U G80A, -2.3.
To A28U G80U belongs -4.11.
For C27U U145G the value was -1.39; for A26U G92U, -2.66.
On to C27A A41U C116U G136C U144A, for which the “polymerase ribozyme fitness (log ratio)” value was ≤ -4.2.
For A28G A37C A41C C69A C85U G133C the value was ≤ -4.2; for A26U G58C A60C G100A A115G, ≤ -4.2.
To C27G C38A C85A C87G G126A A137G belongs ≤ -4.2; to A28G U61G C75A C93U U104G U135A, ≤ -4.2.
To C27U G62C C63U G94U U104C G152U belongs ≤ -4.2; to A26U A41C A49U U53A C95U U130A C132A G143A U148C, ≤ -4.2.
With A26U G50C C105A U109G C129U, the “polymerase ribozyme fitness (log ratio)” value was ≤ -4.2.
Regarding C27G A28U U55G U61A C76A C96U C116G G133C, the “polymerase ribozyme fitness (log ratio)” value was ≤ -4.2.
For A28C C54A G100A the value was ≤ -4.2.
For A28C G124C the value was ≤ -4.2.
